Patent US20220259593A1, “CONTROL OF MAMMALIAN GENE DOSAGE USING CRISPR” (The Regents of the University of California, priority 2019, published 2022)
Changes are numbered by the printed parent chain.

B1: cr164 (nucleic acid)
guide: GTTTAAGAGCTAAGCTGGAAACAGCATAGCAAGTTTAAATAAGGCTAGTCCGTTATCAACTTGAAAAAGTGGCCCCGAGTCGGTGCT
modifications: listed as DNA, chemistry not fully specified
B2: cr852 (nucleic acid)
guide: B1 guide with C60G, T61A, T62A, G63A, A67T, G69C, C74A
modifications: listed as DNA, chemistry not fully specified
B3: cr836 (nucleic acid)
guide: B1 guide with C60T, C74A
modifications: listed as DNA, chemistry not fully specified
B4: cr568 (nucleic acid)
guide: B1 guide with A59T, T61G, A68C, T70A, C74A, C75A, G83T
modifications: listed as DNA, chemistry not fully specified
B5: cr723 (nucleic acid)
guide: B1 guide with T61C, A68G, C74A, C75G, G83C
modifications: listed as DNA, chemistry not fully specified
B6: cr594 (nucleic acid)
guide: B1 guide with A28T, A42G, T53C, C74A
modifications: listed as DNA, chemistry not fully specified
B7: cr725 (nucleic acid)
guide: B1 guide with G33A, C74A
modifications: listed as DNA, chemistry not fully specified
B8: cr449 (nucleic acid)
guide: B1 guide with G44C, C50G, C74A, C75G, G83C
modifications: listed as DNA, chemistry not fully specified
B9: cr522 (nucleic acid)
guide: B1 guide with A28T, A55G, C74A, T80C
modifications: listed as DNA, chemistry not fully specified
B10: cr443 (nucleic acid)
guide: B1 guide with T16G, C74A
modifications: listed as DNA, chemistry not fully specified
B11: cr712 (nucleic acid)
guide: B1 guide with G24C, C74A
modifications: listed as DNA, chemistry not fully specified
B12: cr117 (nucleic acid)
guide: B1 guide with A64G, C74A, A78G
modifications: listed as DNA, chemistry not fully specified
B13: cr890 (nucleic acid)
guide: B1 guide with C74A, A78C, T87C
modifications: listed as DNA, chemistry not fully specified
B14: cr457 (nucleic acid)
guide: B1 guide with C74A, G85T
modifications: listed as DNA, chemistry not fully specified
B15: cr015 (nucleic acid)
guide: B1 guide with A6C, C74A
modifications: listed as DNA, chemistry not fully specified
B16: cr380 (nucleic acid)
guide: B1 guide with A65G, C73T, C74A, G85A
modifications: listed as DNA, chemistry not fully specified
B17: cr505 (nucleic acid)
guide: B1 guide with A28T, A42G, C74A, G79T
modifications: listed as DNA, chemistry not fully specified
B18: cr168 (nucleic acid)
guide: B1 guide with G44A, C50T, C60A, G69T, C74A
modifications: listed as DNA, chemistry not fully specified
B19: cr779 (nucleic acid)
guide: B1 guide with C60A, G69T, C73T, C74A, C75A, G83T, G85A
modifications: listed as DNA, chemistry not fully specified
B20: cr695 (nucleic acid)
guide: B1 guide with T53A, A55G, A64T, C74A
modifications: listed as DNA, chemistry not fully specified
B21: cr550 (nucleic acid)
guide: B1 guide with C74A, C76A, G77A, C81T, G82T
modifications: listed as DNA, chemistry not fully specified
B22: cr474 (nucleic acid)
guide: B1 guide with C74A, G77T
modifications: listed as DNA, chemistry not fully specified
B23: cr558 (nucleic acid)
guide: B1 guide with C74T, C76G, G82C, T84A
modifications: listed as DNA, chemistry not fully specified
B24: cr819 (nucleic acid)
guide: B1 guide with A28C, A47G, T53G, C74A
modifications: listed as DNA, chemistry not fully specified
B25: cr426 (nucleic acid)
guide: B1 guide with G33A, T53C, C74A
modifications: listed as DNA, chemistry not fully specified
B26: cr539 (nucleic acid)
guide: B1 guide with G44T, C50A, C60T, T62G, A67C, G69A, C74A
modifications: listed as DNA, chemistry not fully specified
B27: cr867 (nucleic acid)
guide: B1 guide with C50T, C74A
modifications: listed as DNA, chemistry not fully specified
B28: cr645 (nucleic acid)
guide: B1 guide with G44C, C50G, T61G, A68C, C74A, C76G, G82C
modifications: listed as DNA, chemistry not fully specified
B29: cr859 (nucleic acid)
guide: B1 guide with G29C, A47T, A65G, C74A
modifications: listed as DNA, chemistry not fully specified
B30: cr742 (nucleic acid)
guide: B1 guide with C45A, G48T, T62C, A67G, C74A
modifications: listed as DNA, chemistry not fully specified
B31: cr875 (nucleic acid)
guide: B1 guide with A59C, T62G, A67C, T70G, C74A, G77C, C81G
modifications: listed as DNA, chemistry not fully specified
B32: cr635 (nucleic acid)
guide: B1 guide with C74A, A78G
modifications: listed as DNA, chemistry not fully specified
B33: cr341 (nucleic acid)
guide: B1 guide with G44T, C50A, G72C, C73T, C74A, G85A, C86G
modifications: listed as DNA, chemistry not fully specified
B34: cr508 (nucleic acid)
guide: B1 guide with T46C, T54G, C74A, T80C
modifications: listed as DNA, chemistry not fully specified
B35: cr575 (nucleic acid)
guide: B1 guide with C74A, C76G
modifications: listed as DNA, chemistry not fully specified
B36: cr684 (nucleic acid)
guide: B1 guide with C74A, C76T, G77A, C81T, G82A
modifications: listed as DNA, chemistry not fully specified
B37: cr555 (nucleic acid)
guide: B1 guide with G44T, C50A, C74A
modifications: listed as DNA, chemistry not fully specified
B38: cr278 (nucleic acid)
guide: B1 guide with T49C, C74A, G79A
modifications: listed as DNA, chemistry not fully specified
B39: cr439 (nucleic acid)
guide: B1 guide with T16A, C74A
modifications: listed as DNA, chemistry not fully specified
B40: cr763 (nucleic acid)
guide: B1 guide with T49C, C74A
modifications: listed as DNA, chemistry not fully specified
B41: cr887 (nucleic acid)
guide: B1 guide with A31C, A47C, G63C, C74A
modifications: listed as DNA, chemistry not fully specified

Test system: K562 CRISPRi cells
Test: Constant region variant library pooled growth screen, K562
Assay type: cell-based, human
Conditions: sgRNA constant region variants; activity relative to the original, un-modified constant region cr995
How it was run: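 Growth screens in K562 CRISPRi cells were harvested 4-8 days post-selection at >2000× library coverage. Each variant's phenotype was referenced to the unmodified constant region with the same targeting sequence.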

Molecule	Mean relative activity
B1	0.7776
B2	0.7542
B3	0.7574
B4	1.054
B5	1.054
B6	0.7395
B7	0.7094
B8	0.7698
B9	0.7084
B10	0.7774
B11	0.7744
B12	0.6966
B13	0.7513
B14	0.7254
B15	0.7022
B16	1.055
B17	0.7459
B18	0.7238
B19	0.7512
B20	0.751
B21	0.7679

Molecule	Mean relative activity
B22	0.7254
B23	0.7679
B24	0.7667
B25	0.7265
B26	0.7135
B27	0.7502
B28	0.7179
B29	0.7625
B30	0.7141
B31	0.743
B32	0.7174
B33	0.7299
B34	0.7636
B35	0.6955
B36	0.7672
B37	0.719
B38	0.7368
B39	0.7506
B40	0.7264
B41	0.7504
